Experiments:
[1] = test system: pulmonary arterial hypertension (PAH) models; experiment: Blood pressure and cardiac output in monocrotaline PAH model; assay type: in vivo, rat; settings: MCT + Sildenafil 25 mpk orally every day, 3 weeks
Method: After three weeks, the rats were anesthetized with isoflurane, and measured for blood flow and pressure by using a high-precision pneumatic measurement system (MPVS cardiovascular pressure and volume system, model name: MPVS Ultra, manufacturer: Millar Instruments). The right ventricular end-systolic pressure (RVESP), right ventricular end-diastolic pressure, left ventricular end-systolic pressure, left ventricular end-diastolic pressure were measured using an exclusive catheter (Mikro-Tip rat pressure catheter, manufacturer: Millar Instruments). The cardiac output was measured using a perivascular blood flow probe (Transonic Flow probes, manufacturer: Millar Instruments), and experimental method thereof was performed by the same method as disclosed in the following literature: Pacher P, Nagayama T, Mukhopadhyay P, Batkai S, Kass D A. Measurement of cardiac function using pressure-volume conductance catheter technique in mice and rats. Nat Protoc 2008; 3(9):1422-34.
The models of PAH, which is a disease having a close relation between immune cell invasion and pathological phenomena, were treated with N3 IgG antibody (1 mpk or 10 mpk) for 3 weeks (i.v., twice a week), and then measured for right ventricular end-systolic pressure (RVESP), right ventricular end-diastolic pressure (RVEDP), left ventricular end-systolic pressure (LVESP), left ventricular end-diastolic pressure (LVEDP), and cardiac output (CO).

[2] = test system: pulmonary arterial hypertension (PAH) models; experiment: Echocardiography in PAH model; assay type: in vivo, rat; settings: MCT PAH rats, five animals per group
Text: (§3) To induce PAH in seven-week-old SD rats (Orient Bio), 60 mpk of monocrotaline (MCT) was subcutaneously injected. […] All antibodies were i.v. injected twice a week, and sildenafil was orally administered every day.

[3] = Body weight change in PAH model; settings: MCT + Sildenafil, n = 5
Text: as §3

[4] = molecular target: T1, KRS N-terminal region exposed on the cell membrane (A549 cells, myc-KRS WT/T52D/T52A) (Homo sapiens, UniProt Q15046, T52D); experiment: Immunofluorescence of scFv clones on cells with KRS N-terminal region exposed on the cell membrane; assay type: cell-based; settings: A549 cells expressing myc-KRS T52D (active), T52A (inactive) or WT-KRS (laminin untreated)
T1 construct: expressed in transfected cells; host or cells: A549
Method: (§1) Immunofluorescence was performed to investigate whether the scFv clones selected in Example <1-5> actually bound to the KRS N-terminal region exposed on the cell membrane. In order to make a phenomenon in which KRS is exposed on the membrane, KRS-T52D mutant (active mutant) was used. […] After incubation for 24 h, the cells were incubated using serum-free media (RPMI 1640 media) at 37° C. for 1 h. Thereafter, the cells were treated with 10 μg/ml laminin (L2020; Sigma) and then incubated at 37° C. for 1 h.
(§2) The prepared samples were washed with PBS (4° C.), fixed by the treatment with 4% paraformaldehyde for 10 min, and then washed. The samples were blocked with CAS block for 10 min, and treated with the scFv and Myc antibodies for 2 h. Thereafter, the unbound antibodies were washed out, and incubated with secondary antibodies for 1 h in a dark room. DAPI staining was performed for 10 min before mounting.

KRS N-terminus = molecular target: T2, KRS N-terminus (Homo sapiens, UniProt Q15046); experiment: Western blotting of scFv clones against full-length KRS and KRS fragments; assay type: binding; settings: full-length KRS, fragment lacking N-terminal aa 1-71, fragment aa 1-200; transformed A549 lysate
T2 construct: a KRS fragment composed of amino acid residues 1-200 in the N-terminus; expressed in transfected cells; host or cells: A549
Text: To investigate whether the scFv clones (N3, N5, N7, and N9) finally selected through Example <1-6> actually bound to KRS N-terminus, full-length KRS (denoted by F, SEQ ID NO: 76), a KRS fragment with deletion in amino acids at positions 1-71 in the N-terminus (defined by SEQ ID NO: 1), and a KRS fragment composed of amino acid residues 1-200 in the N-terminus (defined by SEQ ID NO: 2) were used to conduct western blotting.
A549 cells were transformed by the method as described in Example <1-6> using polynucleotides encoding full-length KRS and KRS fragments. Thereafter, the cells were lysed, and western blotting was performed by the same method as described in Example <1-4>.

KRS = molecular target: T3, KRS (Homo sapiens, UniProt Q15046); experiment: Western blotting and immunoprecipitation of converted IgGs; assay type: binding; settings: HCT116 cell lysate
T3 construct: endogenous in cells; host or cells: HCT116

KRS 1-207 aa = molecular target: T4, KRS 1-207 aa (Homo sapiens, UniProt Q15046); experiment: SPR (Biacore 2000) binding of IgGs to immobilized KRS; settings: immobilized KRS 185 RU, antibody 6.25-100 nM
T4 construct: to the antigen (KRS 1-207 aa)
Method: The quantitative binding ability of the purified antibody proteins (N3 IgG and N5 IgG) to the antigen (KRS 1-207 aa) were measured using Biacore 2000 SPR (surface plasmon resonance) (GE healthcare, US) biosensor. After KRS was immobilized on a sensor chip (CM5, GE healthcare, US), antibody proteins (6.25-100 nM), which were serially diluted with HES buffer solution (10 mM HEPES, pH 7.4, 150 mM NaCl, 3 mM EDTA, 0.005% surfactant P20), were allowed to flow at a rate of 30 μl/min for 3 min, and 1 M NaCl/20 mM NaOH was allowed to flow at a rate of 30 μl/min for 3 min, thereby inducing the dissociation of proteins bound to the antigen. Mock IgG was used as control. Specific experiment conditions are as follows:
Immobilized level: 185 RU
Antibody: N3 IgG and N5 IgG
Running buffer: HBS-N buffer
Regeneration: 2 M NaCl, 20 mM NaOH (flow 30 ul/min 1 min)
The affinity was obtained from the kinetic rate constants (ka and kd) and equilibrium dissociation constants (KD) by using BIA evaluation ver. 3.2 software. FIGS. 6A-6B show SPR graph results of N3 IgG and N5 IgG, respectively. It was confirmed from FIGS. 6A-6B and Table 3 that N3 IgG and N5 IgG of the present invention has high specific binding ability to the KRS N-terminal region.

[5] = molecular target: T5, extracellularly exposed KRS N-terminal region (Homo sapiens, UniProt Q15046); experiment: Immunofluorescence staining of converted IgGs; assay type: cell-based; settings: WT-KRS membrane localization induced by laminin treatment
T5 construct: expressed in transfected cells; host or cells: A549
Method: as §1, §2
To investigate whether the IgGs constructed in the present invention actually bound to the region of KRS exposed on the cell membrane, immunofluorescence was performed. Immunofluorescence staining was performed by the same method as described in Example <1-6> by using N3 IgG and N5 IgG as representatives.

T2 sequence (Q15046 1-200): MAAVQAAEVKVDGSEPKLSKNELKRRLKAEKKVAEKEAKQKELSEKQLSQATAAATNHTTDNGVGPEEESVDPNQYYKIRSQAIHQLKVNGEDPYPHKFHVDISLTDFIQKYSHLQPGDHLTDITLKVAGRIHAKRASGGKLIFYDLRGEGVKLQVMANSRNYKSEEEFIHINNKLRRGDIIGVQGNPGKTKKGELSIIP
T1 sequence (Q15046 whole entry T52D): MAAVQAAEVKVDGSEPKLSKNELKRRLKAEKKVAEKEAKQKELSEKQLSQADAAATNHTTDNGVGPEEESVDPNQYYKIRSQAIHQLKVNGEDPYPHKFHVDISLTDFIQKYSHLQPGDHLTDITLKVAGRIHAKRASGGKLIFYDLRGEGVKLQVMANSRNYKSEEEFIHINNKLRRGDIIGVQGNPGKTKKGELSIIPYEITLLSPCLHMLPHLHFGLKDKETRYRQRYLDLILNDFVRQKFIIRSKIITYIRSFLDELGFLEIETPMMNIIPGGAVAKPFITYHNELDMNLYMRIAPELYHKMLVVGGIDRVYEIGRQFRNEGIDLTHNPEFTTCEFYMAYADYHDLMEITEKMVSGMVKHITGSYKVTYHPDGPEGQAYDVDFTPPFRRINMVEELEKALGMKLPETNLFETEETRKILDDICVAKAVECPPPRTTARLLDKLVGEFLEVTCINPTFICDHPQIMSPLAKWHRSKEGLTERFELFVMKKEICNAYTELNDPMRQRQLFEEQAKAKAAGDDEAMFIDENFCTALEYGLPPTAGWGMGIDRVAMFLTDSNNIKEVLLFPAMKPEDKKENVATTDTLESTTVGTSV
T4 sequence (Q15046 1-207): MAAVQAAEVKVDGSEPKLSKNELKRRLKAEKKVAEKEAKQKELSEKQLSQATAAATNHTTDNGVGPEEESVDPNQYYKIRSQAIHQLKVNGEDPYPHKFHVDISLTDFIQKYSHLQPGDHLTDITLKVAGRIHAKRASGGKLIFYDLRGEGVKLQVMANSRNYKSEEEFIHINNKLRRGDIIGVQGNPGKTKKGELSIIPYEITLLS
T3 sequence (Q15046 whole entry): as the sequence (Q15046 whole entry T52D) above, with D52T counted along it
T5 sequence (Q15046 whole entry): as the sequence (Q15046 whole entry T52D) above, with D52T counted along it

CCCc1nn(C)c2c(=O)[nH]c(-c3cc(S(=O)(=O)N4CCN(C)CC4)ccc3OCC)nc12 [Sildenafil, sildenafil, reference compound]
CO ([1]; n = 4): 49.6 ± 17.7 mL/min
LVEDP ([1]; n = 5): 3.6 ± 2.3 mmHg
LVESP ([1]; n = 5): 83.2 ± 4.7 mmHg
RVEDP ([1]; n = 5): 2.6 ± 1.3 mmHg
RVESP ([1]; n = 5): 48.4 ± 9.6 mmHg
D-shaped left ventricle finding indicating pressure overload in the right ventricle [2]: three
body weight, absolute change [3]: 104.1 ± 26.4 g
body weight, relative change [3]: 49.8 ± 10.5%

B1: N3 scFv: scFv clone consisting of the amino acid sequence defined by SEQ ID NO: 67 (protein)
scFv: EVQLLESGGGLVQPGGSLRLSCAASGFTFSSYDMSWVRQAPGKGLEWVSAISYDNGNTYYADSVKGRFTISRDNSKNTLYLQMNSLRAEDTAVYYSARMALDFDYWGQGTLVTVSSGGGGSGGGGSGGGGSQSVLTQPPSASGTPGQRVTISCTGSSSNIGSNYVTWYQQLPGTAPKLLIYDNSNRPSGVPDRFSGSKSGTSASLAISGLRSEDEADYYCASWDDSLSAYVFGGGTKLTVL
binding to membrane-exposed KRS N-terminal region (immunofluorescence) [4]: binding only active mutant cells
specific binding to KRS N-terminus (western blotting) (KRS N-terminus): specifically bound to the KRS N-terminus

B2: N5 scFv: scFv clone consisting of the amino acid sequence defined by SEQ ID NO: 69 (protein)
scFv: EVQLLESGGGLVQPGGSLRLSCAASGFTFSDYAMSWVRQAPGKGLEWVSWIYSGSGNKYYADSVKGRFTISRDNSKNTLYLQMNSLRAEDTAVYYCARMGLDFDYWGQGTLVTVSSGGGGSGGGGSGGGGSQSVLTQPPSASGTPGQRVTISCTGSSSNIGNNYVSWYQQLPGTAPKLLIYDDNQRPSGVPDRFSGSKSGTSASLAISGLRSEDEADYYCGTWDDSLSAYVFGGGTKLTVL
binding to membrane-exposed KRS N-terminal region (immunofluorescence) [4]: binding only active mutant cells
specific binding to KRS N-terminus (western blotting) (KRS N-terminus): specifically bound to the KRS N-terminus

B3: N7 scFv: scFv clone consisting of the amino acid sequence defined by SEQ ID NO: 71 (protein)
scFv: EVQLLESGGGLVQPGGSLRLSCAASGFTFSDYYMSWVRQAPGKGLEWVSGIYSGTGSIYYADSVEGRFTISRDNSKNTLYLQMNSLRAEDTAVYYSARPPYHFDYWGQGTLVTVSSGGGGSGGGGSGGGGSQSVLTQPPSASGTPGQRVTISCTGSSSNIGSNYVTWYQQLPGTAPKLLIYADSNRPSGVPDRFSGSKSGTSASLAISGLRSEDEADYYCGAWDYSLSGYVFGGGTKLTVL
binding to membrane-exposed KRS N-terminal region (immunofluorescence) [4]: binding only active mutant cells
specific binding to KRS N-terminus (western blotting) (KRS N-terminus): specifically bound to the KRS N-terminus

B4: N9 scFv: scFv clone consisting of the amino acid sequence defined by SEQ ID NO: 73 (protein)
scFv: EVQLLESGGGLVQPGGSLRLSCAASGFTFSNYDMSWVRQAPGKGLEWVSWIYSGDSSKYYADSVKGRFTISRDNSKNTLYLQMNSLRAEDTAVYYSARETRTFDYWGQGTLVTVSSGGGGSGGGGSGGGGSQSVLTQPPSASGTPGQRVTISCTGSSFNIGSNAVYWYQQLPGTAPKLLIYYNSQRPSGVPDRFSGSKSGTSASLAISGLRSEDEADYYCGSWDASLSGYVFGGGTKLTVL
binding to membrane-exposed KRS N-terminal region (immunofluorescence) [4]: binding only active mutant cells
specific binding to KRS N-terminus (western blotting) (KRS N-terminus): specifically bound to the KRS N-terminus

B5: N5 IgG: IgG converted from N5 scFv; VH SEQ ID NO: 53, VL SEQ ID NO: 55 (antibody, V domains shown)
VH: EVQLLESGGGLVQPGGSLRLSCAASGFTFSDYAMSWVRQAPGKGLEWVSWIYSGSGNKYYADSVKGRFTISRDNSKNTLYLQMNSLRAEDTAVYYCARMGLDFDYWGQGTLVTVSS
VL: QSVLTQPPSASGTPGQRVTISCTGSSSNIGNNYVSWYQQLPGTAPKLLIYDDNQRPSGVPDRFSGSKSGTSASLAISGLRSEDEADYYCGTWDDSLSAYVFGGGTKLTVL
KRS binding ability (western blotting and immunoprecipitation) (KRS): bound to KRS
ka (KRS 1-207 aa): 3.13e+06 M⁻¹ s⁻¹
kd (KRS 1-207 aa): 0.003282 s⁻¹
binding to extracellularly exposed KRS N-terminal region (immunofluorescence) [5]: favorably bound specifically

Source: patent US11685791B2, “Antibody binding specifically to N-terminal region of lysyl-tRNA synthetase exposed on cell membrane” (Zymedi Co., Ltd., priority 2017, dated 2023)
